Values quoted from earlier work, collected in article PMC7156326.

Biological target: GATAD2A coiled-coil (Homo sapiens) (UniProt Q86YP4)
Chain of UniProt Q86YP4 (Q86YP4 137-178): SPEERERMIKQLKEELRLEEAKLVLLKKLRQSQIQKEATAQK

Kd: 50 nM
Substance: MBD2 coiled-coil (from UniProt Q9UBB5)
